# Experimental data reported in publication PMC12416549 (2024).
# Numbering of substitutions follows the chain as printed. Names and notes keep the numbering of the source.
# T1: TNFR1 (Homo sapiens, UniProt P19438)
# T1 chain: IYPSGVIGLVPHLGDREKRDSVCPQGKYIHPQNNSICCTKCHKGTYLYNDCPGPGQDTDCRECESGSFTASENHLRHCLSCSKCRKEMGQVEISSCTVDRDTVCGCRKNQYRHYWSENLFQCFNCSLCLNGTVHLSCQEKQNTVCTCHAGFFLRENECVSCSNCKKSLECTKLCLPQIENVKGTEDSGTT
# B1: D53Q (designed binder)
# chain: SMEEEVEKAAKEYEKKKKEAIEKHLEKLKAKDKEAAERFLKELEEAAKEYAKQEAKTMSEEEAKRRAKKYKEKVLLSELSEEEQKEIKEAEEKLVRTILKYVEEAAK
# B2: K48W (designed binder)
# chain: B1 chain with K48W, Q53D
# B3: K11A (designed binder)
# chain: B1 chain with K11A, Q53D
# B4: E62T (designed binder)
# chain: B1 chain with Q53D, E62T
# B5: E54I (designed binder)
# chain: B1 chain with Q53D, E54I
# B6: L75W (designed binder)
# chain: B1 chain with Q53D, L75W
# B7: V102S (designed binder)
# chain: B1 chain with Q53D, V102S
# B8: E72D (designed binder)
# chain: B1 chain with Q53D, E72D
# B9: I98F (designed binder)
# chain: B1 chain with Q53D, I98F
# B10: E5V (designed binder)
# chain: B1 chain with E5V, Q53D
# B11: L75R (designed binder)
# chain: B1 chain with Q53D, L75R
# B12: E44L (designed binder)
# chain: B1 chain with E44L, Q53D
# B13: K93F (designed binder)
# chain: B1 chain with Q53D, K93F
# B14: L76T (designed binder)
# chain: B1 chain with Q53D, L76T
# B15: H24G (designed binder)
# chain: B1 chain with H24G, Q53D
# B16: E45L (designed binder)
# chain: B1 chain with E45L, Q53D
# B17: A51D (designed binder)
# chain: B1 chain with A51D, Q53D
# B18: K85L (designed binder)
# chain: B1 chain with Q53D, K85L
# B19: Y50E (designed binder)
# chain: B1 chain with Y50E, Q53D
# B20: E103H (designed binder)
# chain: B1 chain with Q53D, E103H
# B21: A63M (designed binder)
# chain: B1 chain with Q53D, A63M
# B22: E54M (designed binder)
# chain: B1 chain with Q53D, E54M
# B23: V74M (designed binder)
# chain: B1 chain with Q53D, V74M
# B24: E26Q (designed binder)
# chain: B1 chain with E26Q, Q53D
# B25: V102N (designed binder)
# chain: B1 chain with Q53D, V102N
# B26: I87D (designed binder)
# chain: B1 chain with Q53D, I87D
# B27: E91Y (designed binder)
# chain: B1 chain with Q53D, E91Y
# B28: D32W (designed binder)
# chain: B1 chain with D32W, Q53D
# B29: A35E (designed binder)
# chain: B1 chain with A35E, Q53D
# B30: K31V (designed binder)
# chain: B1 chain with K31V, Q53D
# B31: E91C (designed binder)
# chain: B1 chain with Q53D, E91C
# B32: E60M (designed binder)
# chain: B1 chain with Q53D, E60M
# B33: V6P (designed binder)
# chain: B1 chain with V6P, Q53D
# B34: E37P (designed binder)
# chain: B1 chain with E37P, Q53D
# B35: R38P (designed binder)
# chain: B1 chain with R38P, Q53D
# B36: E82Y (designed binder)
# chain: B1 chain with Q53D, E82Y
# B37: E92S (designed binder)
# chain: B1 chain with Q53D, E92S
# B38: K17C (designed binder)
# chain: B1 chain with K17C, Q53D
# B39: K23S (designed binder)
# chain: B1 chain with K23S, Q53D
# B40: K71C (designed binder)
# chain: B1 chain with Q53D, K71C
# B41: A90S (designed binder)
# chain: B1 chain with Q53D, A90S
# B42: I98N (designed binder)
# chain: B1 chain with Q53D, I98N
# B43: A36H (designed binder)
# chain: B1 chain with A36H, Q53D
# B44: L99C (designed binder)
# chain: B1 chain with Q53D, L99C
# B45: E60Q (designed binder)
# chain: B1 chain with Q53D, E60Q
# B46: E44G (designed binder)
# chain: B1 chain with E44G, Q53D
# B47: L94E (designed binder)
# chain: B1 chain with Q53D, L94E
# B48: K56E (designed binder)
# chain: B1 chain with Q53D, K56E
# B49: K15C (designed binder)
# chain: B1 chain with K15C, Q53D
# B50: E34Y (designed binder)
# chain: B1 chain with E34Y, Q53D
# B51: L99Y (designed binder)
# chain: B1 chain with Q53D, L99Y
# B52: E26Y (designed binder)
# chain: B1 chain with E26Y, Q53D
# B53: E92F (designed binder)
# chain: B1 chain with Q53D, E92F
# B54: I98T (designed binder)
# chain: B1 chain with Q53D, I98T
# B55: K23R (designed binder)
# chain: B1 chain with K23R, Q53D
# B56: K69D (designed binder)
# chain: B1 chain with Q53D, K69D
# B57: K17W (designed binder)
# chain: B1 chain with K17W, Q53D
# B58: L40M (designed binder)
# chain: B1 chain with L40M, Q53D
# B59: S1V (designed binder)
# chain: B1 chain with S1V, Q53D
# Target: T1, TNFR1
# Assay: yeast display SC50
row,apparent Kd (screen) [nM],Binder
1,2.05,B1
2,2.73,B2
3,0.446,B3
4,1.54,B4
5,13.8,B5
6,0.446,B6
7,0.446,B7
8,1.4,B8
9,4.39,B9
10,1.27,B10
11,1.16,B11
12,1.4,B12
13,0.653,B13
14,0.653,B14
15,0.718,B15
16,1.69,B16
17,12.5,B17
18,0.79,B18
19,9.41,B19
20,0.446,B20

row,apparent Kd (screen) [nM],Binder
1,9.41,B21
2,2.48,B22
3,1.54,B23
4,0.956,B24
5,0.446,B25
6,15.2,B26
7,8.56,B27
8,22.2,B28
9,2.25,B29
10,0.446,B30
11,13.8,B31
12,0.49,B32
13,0.446,B33
14,0.49,B34
15,11.4,B35
16,0.653,B36
17,7.07,B37
18,2.73,B38
19,0.49,B39
20,0.446,B40

row,apparent Kd (screen) [nM],Binder
1,0.79,B41
2,5.84,B42
3,0.49,B43
4,13.8,B44
5,1.05,B45
6,2.48,B46
7,8.56,B47
8,1.86,B48
9,1.27,B49
10,0.539,B50
11,9.41,B51
12,0.869,B52
13,13.8,B53
14,15.2,B54
15,0.49,B55
16,1.4,B56
17,1.16,B57
18,0.593,B58
19,0.869,B59
